Source: publication PMC11585616 (2024)
Where two headings read alike, the source gives them in different places.

Experiments:
Experiment in all cases: ITC
VcSiaP [1] = target: T1, VcSiaP (Vibrio cholerae, UniProt Q9KR64 23-321)
VcSiaP [2] = target: T1, VcSiaP; remark: listed apart in the source
HiSiaP = HiSiaP (Haemophilus influenzae, UniProt P44542 24-329)
Sequence of HiSiaP (P44542 24-329): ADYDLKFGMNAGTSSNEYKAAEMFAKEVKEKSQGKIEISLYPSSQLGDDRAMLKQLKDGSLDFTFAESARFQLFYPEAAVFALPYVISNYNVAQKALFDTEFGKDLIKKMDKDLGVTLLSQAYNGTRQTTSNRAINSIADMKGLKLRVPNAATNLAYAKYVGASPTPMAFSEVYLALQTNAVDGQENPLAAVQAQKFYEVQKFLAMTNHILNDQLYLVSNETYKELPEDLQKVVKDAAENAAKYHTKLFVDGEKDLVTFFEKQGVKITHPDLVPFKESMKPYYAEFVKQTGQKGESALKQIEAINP

T1 sequence (Q9KR64 23-321): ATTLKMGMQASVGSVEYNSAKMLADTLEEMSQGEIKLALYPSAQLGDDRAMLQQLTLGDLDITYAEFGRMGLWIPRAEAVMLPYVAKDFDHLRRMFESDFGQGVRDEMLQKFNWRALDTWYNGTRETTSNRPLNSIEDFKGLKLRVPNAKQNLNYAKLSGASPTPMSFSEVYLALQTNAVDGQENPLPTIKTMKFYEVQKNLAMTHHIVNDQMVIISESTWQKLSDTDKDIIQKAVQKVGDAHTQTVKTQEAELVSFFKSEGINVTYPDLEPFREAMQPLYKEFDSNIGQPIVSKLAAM

B1: VHHVcP #2 (VHH)
VHH: QVQLVESGGRLVQTGGSLRLSCAASGDTFSNYVMGWFRQAPGKEREFVAAISWTGANSYYADSVAGRFTISRDNAKNTVALQMNSLKPEDTAIYYCAADHFHVTHRKYDYWGQGTQVTVSS
B1 was tested, and the Kd (VcSiaP [1]) was 5.61 nM, the Kd (VcSiaP [2]) was 1.97 nM and the Kd (HiSiaP) was 10700 nM.
